Experimental findings from patent US20160206764A1 (ONCOINVENT, published 2016) are described below.

Assay [1] addresses CD146 (melanoma cell adhesion molecule (MCAM), cell surface glycoprotein MUC18), endogenous on human tumor cell lines (human) (UniProt P43121). In words: MelJRpost3.3 cells pre-treated with OJ97cMUC18; competitor/tracer ^125I-OI-3.
Assay [2] deals with T1, CD146 (melanoma cell adhesion molecule (MCAM), cell surface glycoprotein MUC18), endogenous on human tumor … (human, UniProt P43121 24-646).
T1 construct: whole, on cells; Also used here for the endogenous protein in lysates and tissue sections of these cells (Western blot, immunoprecipitation, IHC); also called Mel-CAM
The assay can be described thus: saturation binding of ^125I-OI-3 to Mel 3.3 melanoma cells, interpolation of binding plot at half βmax.

Assay [3] concerns the target T1, CD146 (melanoma cell adhesion molecule …). The assay can be described thus: saturation binding of ^125I-OI-3 to Mel 3.3 melanoma cells, Scatchard plot.
The target is the same in assay [4]. The assay can be described thus: saturation binding of ^125I-OI-3 to Mel 3.3 melanoma cells, Ka=1/Kd.

For the molecule “commercial murine monoclonal anti-CD146 (OJ79c MUC18) (antibody)”, in assay [1], the specific binding in % of ^125I-OI-3 after pre-treatment (no pretreatment = 100%) was determined as 101%.

B1: OI-3 murine monoclonal antibody (antibody, V domains shown)
VH: EVQLQQSGPELVKTGASVKISCKASGYSFTGYYIHWVKQSHGKSLEWIGYISNYNGATTYSQEFKGKATFTVDRSSRIAYMQFTGLTSEDSAVYYCAGNSWGDWYFDVWGAGTTVTVSS
VL: DVVMTQTPLSLPVSLGDQASISCRSSQSLVHSNGNTYLHWYLQKPGQSPKLLIYKVSNRFSGVPDRFSGSGSGTDFTLKISRVEAEDLGVYFCSQSTHVSTFGGGTKLEIK
notes: also called ^177Lu-OI-3
B1: the Kd in assay [2] was 3.1 nM; in assay [3], around 3.1 nM. In assay [4], the Ka was around 3.2e+08 M⁻¹.
